Laboratory results published in publication PMC11404569, “ECT2 peptide sequences outside the YTH domain regulate its m6A-RNA binding”.

Tests used:
Conditions in all cases: protein: recombinant; tags: N-terminal His-SUMO; label: 5' FAM
[1] = target: T1, ECT2-Fl mut (YTH mut) (Arabidopsis thaliana, UniProt Q9LJE5 1-667, W464A;W521A;W526A); assay: EMSA; EMSA: 10 nM FAM-RNA; binding buffer 10 mM HEPES pH 8.0, 50 mM KCl, 1 mM EDTA, 0.05% Triton X-100, 5% glycerol, 10 µg/mL salmon DNA, 1 mM DTT, 40 U/mL RNasin; 20 min on ice; native 8% acrylamide TBE gel at 4°C
T1 sequence: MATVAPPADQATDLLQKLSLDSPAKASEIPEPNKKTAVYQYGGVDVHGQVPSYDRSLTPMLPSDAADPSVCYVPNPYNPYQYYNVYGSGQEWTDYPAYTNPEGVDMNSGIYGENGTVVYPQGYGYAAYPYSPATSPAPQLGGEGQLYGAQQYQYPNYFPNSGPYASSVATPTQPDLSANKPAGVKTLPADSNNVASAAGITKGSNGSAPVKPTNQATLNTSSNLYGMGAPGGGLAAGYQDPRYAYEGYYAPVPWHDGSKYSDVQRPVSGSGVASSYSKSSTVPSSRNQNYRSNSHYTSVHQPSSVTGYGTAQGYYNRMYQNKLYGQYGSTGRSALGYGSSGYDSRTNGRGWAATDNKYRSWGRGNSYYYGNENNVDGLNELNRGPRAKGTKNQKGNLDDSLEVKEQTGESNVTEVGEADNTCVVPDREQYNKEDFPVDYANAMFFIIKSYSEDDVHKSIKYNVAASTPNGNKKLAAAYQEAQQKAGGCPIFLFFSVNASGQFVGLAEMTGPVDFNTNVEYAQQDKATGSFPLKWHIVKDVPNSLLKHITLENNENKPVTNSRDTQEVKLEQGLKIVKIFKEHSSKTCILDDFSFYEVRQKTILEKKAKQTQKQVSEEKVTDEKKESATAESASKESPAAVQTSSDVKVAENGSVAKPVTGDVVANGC

[2] = target: T2, ECT2-108 YTH mut (Arabidopsis thaliana, UniProt Q9LJE5 108-667, W464A;W521A;W526A); assay: EMSA; up to 500 nM; EMSA: 10 nM FAM-RNA; binding buffer 10 mM HEPES pH 8.0, 50 mM KCl, 1 mM EDTA, 0.05% Triton X-100, 5% glycerol, 10 µg/mL salmon DNA, 1 mM DTT, 40 U/mL RNasin; 20 min on ice; native 8% acrylamide TBE gel at 4°C
T2 sequence: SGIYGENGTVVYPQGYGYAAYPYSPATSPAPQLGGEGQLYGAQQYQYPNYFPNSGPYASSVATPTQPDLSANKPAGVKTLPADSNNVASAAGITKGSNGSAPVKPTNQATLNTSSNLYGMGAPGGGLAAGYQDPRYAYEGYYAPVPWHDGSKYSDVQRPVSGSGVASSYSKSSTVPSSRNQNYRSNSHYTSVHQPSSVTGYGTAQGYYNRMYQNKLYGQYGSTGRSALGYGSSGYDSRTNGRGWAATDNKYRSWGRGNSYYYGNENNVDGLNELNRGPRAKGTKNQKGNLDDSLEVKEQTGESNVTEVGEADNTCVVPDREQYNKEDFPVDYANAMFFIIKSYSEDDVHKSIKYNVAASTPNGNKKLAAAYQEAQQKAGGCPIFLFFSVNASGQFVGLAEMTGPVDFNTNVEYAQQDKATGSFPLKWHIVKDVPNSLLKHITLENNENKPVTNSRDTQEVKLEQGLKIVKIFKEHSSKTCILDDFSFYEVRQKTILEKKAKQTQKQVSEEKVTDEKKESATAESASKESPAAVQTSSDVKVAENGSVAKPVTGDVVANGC

[3] = target: T3, ECT2-303 YTH mut (Arabidopsis thaliana, UniProt Q9LJE5 303-667, W464A;W521A;W526A); assay: as above
T3 sequence: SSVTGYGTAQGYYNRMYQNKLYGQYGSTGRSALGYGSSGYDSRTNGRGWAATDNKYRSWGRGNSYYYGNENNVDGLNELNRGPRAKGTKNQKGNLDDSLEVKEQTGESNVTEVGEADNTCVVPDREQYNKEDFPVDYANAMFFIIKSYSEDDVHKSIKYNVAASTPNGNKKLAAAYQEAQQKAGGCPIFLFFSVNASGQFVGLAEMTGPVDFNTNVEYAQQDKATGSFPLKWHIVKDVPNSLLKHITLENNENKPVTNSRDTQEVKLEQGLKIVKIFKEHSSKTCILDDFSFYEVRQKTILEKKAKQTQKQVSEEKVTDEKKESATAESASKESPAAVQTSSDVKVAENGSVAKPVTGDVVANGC

[4] = target: T4, ECT2-Δα0 (Arabidopsis thaliana, UniProt Q9LJE5 1-667, del419-427); assay: EMSA; close to full length, doublet kept; EMSA: 10 nM FAM-RNA; binding buffer 10 mM HEPES pH 8.0, 50 mM KCl, 1 mM EDTA, 0.05% Triton X-100, 5% glycerol, 10 µg/mL salmon DNA, 1 mM DTT, 40 U/mL RNasin; 20 min on ice; native 8% acrylamide TBE gel at 4°C
T4 sequence: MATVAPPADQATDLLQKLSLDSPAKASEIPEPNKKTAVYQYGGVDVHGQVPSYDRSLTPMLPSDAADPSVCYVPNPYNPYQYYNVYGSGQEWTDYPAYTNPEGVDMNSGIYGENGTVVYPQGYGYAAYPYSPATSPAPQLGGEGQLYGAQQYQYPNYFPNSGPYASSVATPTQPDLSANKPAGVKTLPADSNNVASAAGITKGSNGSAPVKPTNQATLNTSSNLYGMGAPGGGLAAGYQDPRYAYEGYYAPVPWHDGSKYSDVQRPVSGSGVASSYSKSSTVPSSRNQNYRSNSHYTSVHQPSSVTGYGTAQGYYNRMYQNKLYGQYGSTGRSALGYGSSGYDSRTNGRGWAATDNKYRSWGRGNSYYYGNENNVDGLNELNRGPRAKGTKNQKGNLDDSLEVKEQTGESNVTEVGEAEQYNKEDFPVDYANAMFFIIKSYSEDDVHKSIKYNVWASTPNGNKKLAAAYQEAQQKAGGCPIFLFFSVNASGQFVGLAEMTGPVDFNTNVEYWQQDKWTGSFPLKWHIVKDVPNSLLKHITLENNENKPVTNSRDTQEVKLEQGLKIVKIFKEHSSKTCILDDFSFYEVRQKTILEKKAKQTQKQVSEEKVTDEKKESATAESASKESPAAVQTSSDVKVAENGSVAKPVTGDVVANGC

AUGGGCCGUUCAUCUGCUAAAAGGACUGCUUUUGGGGCUUGU (ssRNA, m6A at position 25; thiol-protected 3' bases (*G*U)) [Probe I m6A]: no binding [1]; no binding [2]; no binding [3]. AUGGGCCGUUCAUCUGCUAAAAGGACUGCUUUUGGGGCUUGU (ssRNA, m6A at position 25; thiol-protected 3' bases (*G*U)) [Probe I m6A]: binds [4].
